The values that follow are results of earlier work, collected in patent US5767071A, “Sevenmer cyclic peptide inhibitors of diseases involving αv β3” (IXSYS Incorporated, priority 1995, dated 1998).

In series [1] the target is integrin αv β3 (Homo sapiens, UniProt P05106+P06756). Conditions: binding and cell adhesion assays.
The subject of series [2] is chicken embryo tumor model.
The subject of series [3] is angiogenesis.

Sequence of integrin αv β3 (P06756 31-889 limits assumed): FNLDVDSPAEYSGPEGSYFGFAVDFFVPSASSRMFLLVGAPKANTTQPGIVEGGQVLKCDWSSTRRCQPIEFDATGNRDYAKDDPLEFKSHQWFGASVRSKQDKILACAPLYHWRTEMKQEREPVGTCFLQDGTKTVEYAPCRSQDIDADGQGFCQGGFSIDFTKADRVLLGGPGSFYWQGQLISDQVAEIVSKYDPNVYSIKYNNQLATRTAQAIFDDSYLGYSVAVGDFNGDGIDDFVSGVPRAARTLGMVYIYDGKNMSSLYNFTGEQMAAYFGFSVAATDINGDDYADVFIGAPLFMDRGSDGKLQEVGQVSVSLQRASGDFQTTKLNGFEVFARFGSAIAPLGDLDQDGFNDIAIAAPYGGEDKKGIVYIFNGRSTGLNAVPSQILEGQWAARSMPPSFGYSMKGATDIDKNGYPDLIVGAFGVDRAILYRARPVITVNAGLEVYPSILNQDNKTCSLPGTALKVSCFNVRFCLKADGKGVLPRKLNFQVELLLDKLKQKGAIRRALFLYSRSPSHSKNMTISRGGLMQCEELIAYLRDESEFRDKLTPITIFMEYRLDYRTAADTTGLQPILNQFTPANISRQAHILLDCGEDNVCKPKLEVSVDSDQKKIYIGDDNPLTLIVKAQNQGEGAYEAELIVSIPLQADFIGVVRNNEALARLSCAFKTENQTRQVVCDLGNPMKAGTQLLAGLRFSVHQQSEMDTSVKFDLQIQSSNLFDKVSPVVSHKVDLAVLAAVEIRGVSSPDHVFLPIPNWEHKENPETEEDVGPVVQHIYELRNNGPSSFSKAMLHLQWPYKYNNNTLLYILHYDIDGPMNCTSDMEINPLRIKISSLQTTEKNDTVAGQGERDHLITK
Sequence of integrin αv β3 (P06756 891-1048 limits assumed): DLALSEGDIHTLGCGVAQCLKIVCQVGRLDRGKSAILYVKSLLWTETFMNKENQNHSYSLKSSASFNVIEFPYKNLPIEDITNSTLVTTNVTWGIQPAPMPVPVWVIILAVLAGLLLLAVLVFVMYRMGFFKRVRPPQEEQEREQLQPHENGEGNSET
Sequence of integrin αv β3 (P05106 27-788): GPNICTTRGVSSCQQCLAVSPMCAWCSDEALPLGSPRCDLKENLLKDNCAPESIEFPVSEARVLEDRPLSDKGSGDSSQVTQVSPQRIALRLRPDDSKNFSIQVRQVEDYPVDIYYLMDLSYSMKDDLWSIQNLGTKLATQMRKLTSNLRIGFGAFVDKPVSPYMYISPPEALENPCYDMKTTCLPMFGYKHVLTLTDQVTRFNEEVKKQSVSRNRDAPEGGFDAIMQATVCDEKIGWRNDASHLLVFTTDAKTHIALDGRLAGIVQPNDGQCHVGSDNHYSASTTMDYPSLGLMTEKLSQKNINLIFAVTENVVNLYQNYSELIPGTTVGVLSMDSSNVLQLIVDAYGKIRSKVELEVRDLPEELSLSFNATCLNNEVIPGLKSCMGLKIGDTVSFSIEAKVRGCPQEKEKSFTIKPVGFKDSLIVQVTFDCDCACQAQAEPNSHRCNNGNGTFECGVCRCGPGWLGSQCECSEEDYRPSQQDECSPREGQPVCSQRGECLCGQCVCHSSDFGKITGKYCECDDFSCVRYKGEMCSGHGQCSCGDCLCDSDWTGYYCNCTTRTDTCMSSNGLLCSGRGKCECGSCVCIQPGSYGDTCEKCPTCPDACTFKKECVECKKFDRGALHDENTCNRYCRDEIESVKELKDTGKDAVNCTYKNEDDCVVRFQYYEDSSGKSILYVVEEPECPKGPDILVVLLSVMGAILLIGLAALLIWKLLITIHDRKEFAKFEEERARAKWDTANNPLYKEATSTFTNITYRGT

“ACPSRLDSPCG [RLD peptide from a literature phage library (Koivunen et al.)]”: in series [1], the “activity compared with an RGD peptide” value is 100-1000 fold lower and the “selectivity for the integrin αv β3” value is “only partially selective”.
Consider `CC(C)[C@@H]1NC(=O)[C@@H](Cc2ccccc2)NC(=O)[C@H](CC(=O)O)NC(=O)CNC(=O)[C@H](CCCN=C(N)N)NC1=O` [cyclo-RGDfv], for which the “inhibition of angiogenesis / neovascularization” value in series [2] was “inhibit the neovascularization process”.
Regarding Gly-Arg-Gly-Asp-Ser (GRGDS), the “inhibition of angiogenesis in vitro” value in series [3] is on record as “inhibits angiogenesis in vitro”.
